From the DeepSol protein solubility set

Test: soluble on expression in E. coli; label from the status in PepcDB or PDB records

| Sequence | soluble on expression in E. coli |
| --- | --- |
| MKGTIFAVALNHRSQLDAWQEAFQQSPYKAPPKTAVWFIKPRNTVIGCGEPIPFPQGEKVLSGATVALIVGKTATKVREEDAAEYIAGYALANDVSLPEESFYRPAIKAKCRDGFCPIGETVALSNVDNLTIYTEINGRPADHWNTADLQRNAAQLLSALSEFATLNPGDAILLGTPQARVEIQPGDRVRVLAEGFPPLENPVVDEREVTTRKSFPTLPHPHGTLFALGLNYADHASELEFKPPEEPLVFLKAPNTLTGDNQTSVRPNNIEYMHYEAELVVVIGKQARNVSEADAMDYVAGYTVCNDYAIRDYLENYYRPNLRVKSRDGLTPMLSTIVPKEAIPDPHNLTLRTFVNGELRQQGTTADLIFSVPFLIAYLSEFMTLNPGDMIATGTPKGLSDVVPGDEVVVEVEGVGRLVNRIVSEETAK | soluble |
| MSSAWKTPRGSDAMPEIMVKIIGSKHFQYLVEKPKIKENDSLKTETQTMHQKPMTDNARQMSRDTPVPINFTDQQTTDNPDDVKEKKHPENNQKSENNQKLLTGANSSRFLDGNIPSQANVHCSSVPTGDQSLSYVHGIPRRKLRDWSLEQMVRGSSDQPEDIGQSPSGTTNEDAFLLALVRRELKSRPLSSNLLEKLQKELKILDPISSGFLLQSQLSRLFLKHEVPLQLPTVKILCQRFSKRGSPEMVNYEKLLWFLNSAASDYPQQNKAAADLRKTESHGTHSQSTPPQHSSSQPEVNRSLLEILKMALRTTNGRLNIDNLNLSFRKEDRSFSGCLPLPKVRAICGKHGLYLTLSLLETLLNHQDLGYQNEIKWQNFVEMLTRASSDLLSDLPTGKNEKKAPAPPMEPEVPEMSQSKTEHMKTPEEELQPESSPAETSACKDPLKPLKIRPVSQPFVNPAVKNKAEECETWIDRFRKLENALYLCDLSNTGVLEKERARRLIHNYNLIYNLSLSPQKIDQALRRFRSGENMLLEPALRYLKEL | not soluble |
| MASIKEELISAAESESQVMQIVQAALEGIDMDALTSMTPGLPQTVRQTAINSLLSSKKLAIQQAPGGVLRLKVNTSEQIAGTEEEQVIYSLIEESKTRGIWIKELREGSGLNQLQLRKTLKSLETKKLIKTIKAVGTTRKCYILFSIEPDMSLTGGTFYSDQQLDSELINTLISVCGSYAASRRKHAIDENPNNIQMQREASYIRPQEIAQFITEKRVLNVPLSLEDLERILEVAVLDGTIERRADGKIRACPPRSSISPLVSVPCAICPVVEDCRPGYVISPQSCDYMKNWLADL | not soluble |
| MGHHHHHHSHMNFAGKHVGFGLTGSHCTYHEVLPQMERLVELGAKVTPFVTHTVQTTDTKFGESSEWINKIKQITEEPIVDSMVKAEPFGPKTPLDCMVIAPMTGNSTSKFANAMTDSPVLMGAKATLRNGKPVVVGISTNDALGLNGINIMRLMATKNIYFIPFGQDNPQVKPNSLVARMEALPETIEAALRGQQYQPVLIEKFRD | soluble |
| LVPRGSAMGSGNDTSRGANKTVVVTTILESPYVMMKKNHEMLEGNERYEGYCVDLAAEIAKHCGFKYKLTIVGDGKYGARDADTKIWNGMVGELVYGKADIAIAPLTITLVREEVIDFSKPFMSLGISIMIKKGTPIESAEDLSKQTEIAYGTLDSGSTKEFFRRSKIAVFDKMWTYMRSAEPSVFVRTTAEGVARVRKSKGKYAYLLESTMNEYIEQRKPCDTMKVGGNLDSKGYGIATPKGSSLGNAVNLAVLKLNEQGLLDKLKNKWWYDKGECGS | soluble |
| MKRLILPIACGICTVTSDAQTDKQPHPNVIFIYADDLGYKDLSCTGSRFYETPHIDKLAREGVCFTQSYAACPVSSPSRAALLTGKYPARINLTDYIPGDRAYGPHKNQRLASLPFNLHLSKDEITMAEAFRQNGYSTFMAGKWHLAESAEYYPEQNGFDINIGGNNTGHPSKGYFSPYGNPQLKDGPEGEYLTDRLTDEVIRYISEPKEKPFFVYLSYYTVHLPLQAKAEKIAKYRRKLSRAVPADSSFVKKGETYHKLVQDIPAYAAMVESLDENIGRLLDTLHRSGLDERTIVVFTSDNGGMATSNTTRNIPTSNLPLRAGKGYLYEGGIKVPAIIRWSGHLKGRQVSDTPIIGTDYYPTLLDLCGLPLLPGQHVDGVSMKPVLQGGRLSRPSLFWHYPHYSGGLGGRPSAAIREGDYKLIEFFEDHHVELYNVIQDESEEKDLSQIYPEIADGLRKKLYLWYKEVGARMPVDNPHYVSPVKDSDSFENKLEHHHHHH | not soluble |
| MGGSHHHHHHGMASALASEAPSPPRSPPPPTSPEPELAQLRRKVEKLERELRSCKRQVREIEKLLHHTERLYQNAESNNQELRTQVRGPPQPRAPSSPGEAFEARDSLGRGPWQGLRTTVEYLK | not soluble |
| MSLGLNILKTLRSHRVSEGVSNSDTHYELTSALIKSLRGSDIDASIYYLARLIQGGEEPAFLARRMVIFASEDIGNANPNALNLATNVMLAVSKIGYPEARIILAQCAVYLASSPKSNSSYKAINDAIEFVENRPALPVPKYLINTDKAKSEYLYPHDFGGWVEQKYMSTQVKFYKSNAIGFEKTLDEWITKLKESYNEKEGHHHHHH | soluble |
| SLAQIPRPEIMDEDQLMKEVLDKFVNCHEQTYEEFLSTFTHLSKEDNVAKWGAHGTDSSENIFSTVKWNHKTESNGCHFRNTTIFLHTSSEHSEEDQIVIDEGHKVGSSFQGDMTRAGKVKVDNFLDLEDVDMEEESKPQMNKDCLLLPGEVEQDISTSVPSYDPSVDLPLTSEVRPKPAVGRTQKQTEEILGDEVQPFFLDEEFDYDNVTLTPKFTAGEIATIQELSKQKRVGSGTNVCELHD | soluble |
| MKTIRLTTAQALVKFLNQQYVEFDGHIQKFVKGIFTIFGHGNVLGLGQALEEDPGELEVYQGRNEQGMAHAAIAFAKQKHRRQIMACTSSVGPGAANMVTAAATASANHIPVLLLPGDTFATRQPDPVLQQIEHWHDLTVSTNDAFRAVSKYWDRISRPEQLMSAMIQAMRVLTDPANTGAVTIALPQDVQGEAYDFPESFFQKRIHRIERRVPAKAAIHEAVELIRRKKKPIIICGGGVRYSEAAEELKQFAEKFHIPYGETQAGKSAVESAHPYNLGGIGVTGNLAANIIAKEADLVIGIGTRYTDFTTGSKQLFQHPEVEFLTINVSVFDACKLDAVRVVADAKLALLALTEELEKIGYRSGYTNEIDIAKKAWEEELNRLHHVRYRQSGFQPEVAGHLDEVLTEYSEFFDSSLTQTEVIGAINEWIDDDAIIIGAAGSLPGDLQRMWVARRPNTYHMEYGYSCMGYEIAGALGVKMAEPDKEVYAMVGDGSYLMLHSELVTSIQEKKKINVLLFDNGGFGCINNLQMGHGMGSFATEFRYRNEETGRLDGSLIPIDFAQSAAGYGVKTYKVHTLEQLKEALEDAKQQSVSTLIDIKVLPKTMTHDYESWWHVGVAEVSRNPKIAEAYKRKEQQLQRARKY | soluble |
| MGSDKIHHHHHHMDYELLKTFICLAKLKNFTKTAEQLHVVQSTITSRIKHLEHTIGETLFIRTNKKVLLTGAGEIFLPYAKQLLSIQETAISRLHTLELFKDTLNIGAVHSIYDCHVQNMILKYMQRNKKIAIKITIEHSEELIQMLHDNQLDVTFTYLDIKSSQFICNPFYTDKIILVTGSQNNYNERGITNDELRSLPLLSSAILTEEFQEWFYSIFPRNYIYPLDININSNIVTFLKDGIGFSFMPESAAKNFIEEGSLIEVKLLESTPPSMKSYVLLNKQRINSEAVHSWLNEFPTLTST | not soluble |
| AHHHHHHGSKGILPYVIFRSKKGTFALDAYLALRVEKVERIATLIRKAEVVKRAFDIPPNADLTLEELSEFLESSMEKIRKNAGESFDRRLKKIRRWNLARLFGIPTGHTRHIAEDEHLSREHRESLLALSILENVCRGGIEPIGYGVVDVEVKEGKVYINGKLDPVYTELIKIDMKAALALLEILSE | not soluble |
| MGSDKIHHHHHHLGKFSHIAIAFIDVVMESDHAGLELIRWIREELHNKTIRLILRTGQPGQAPEEDVIVNYDINDYKAKSELDSRKLMTSVYSALRSYRDIMEIEQARRAQLSHRMGLERVLEATAGLFELRTLHKFADGLLTQVATLLNLDNETLLLSCNAMDAISGHVDCAGIEILAGTGQFANSSAKTILPERIDKLLRSALAQKRCLYEDNYFVGYFPTKSGLINLLYMDGINKIDDLDKKLIDIFAINVGIAFENLLLNQEVEDTQSELILRLGDVVESRSKEAANHVKRMAEYCAQLALLAGLNEYDADLLRRASPMHDIGKIAIPDAVLLKPGKLNDDEWQIMRQHPNIGHQILANSERPILKAASIIALQHHEKYDGSGYPSNLKQDEIHIFARIVAIADVFDALSHTRCWLFLPIPQKCKISDRLAQKHTVNWSLYRRIP | not soluble |
| MGSDKIHHHHHHAACSNDDEPGIDKGGQKGELIDAISIAFTSSSAPATRADKGEIEGVGTENNVYVAYLFAKENDPQHEGAKVGDWTVKRVAGDSNTDDKDVAAAIGEGDVATPGTKKNMCTFNGVRQGDSVYVVVNDPQMTLATAQTLAHQGDKSEAAIRAYISNLSKSYLNDLTVTKDGTQGKKYIMAGVSAIPTNPNIPNGSTVKVSIPLNRELAKVFFNASVTTNPVYEAYGKMAIKDAVWENPTGTKDPDGIVVVRIPRRVSPFTAQARDWYFPQSADATAKDWDVEGWLKAFAGESQSVPGTAEVPGTTLALNKGEYNADAKEYRLTWVVGEKALADGATPAAASMVYVKSDKLYSPYFYVTPNYADNAGCATVVVTQATYIGANTLLEPTITEQMLSEALDDSDFQTATSTDGSVKYDKLAADFWNTGANVAALVAFLEKNATYKLALRGETDPSKKEAAITIKPNDKRYYRADVANYSDDETTSMKITERNTFYHITGTITTLGAKSIEDAINSDNIDMLVQVVVKPWKYVVNNINM | not soluble |
| MGSDKIHHHHHHMKSNLFMKRKLEIGLSLLIGTSVFGGCNNDLAPIRQSQTFPPNLNAPTVFESFSPDSGGVKTQLIIRGQNFGTDTAYLKVTVNNKRAAIVGVADDVIYAIVPARADTGYVRLFVGKDDNVEEYASQTKFIYQFKRNVTTLMGRQGQSGRDDGPYAECKLQRPWFALADKDGALFFIDEGRGQNKNGALRRAQEGWVETLVQNSSGPFQSPTCLAFNPKQDTLYISNMSYGSDIKTSFNILYVTREGGFMDVKGLCKFEKAETQGLAVHPQTGEIFFCNKSGGYIYRFNGPDYEDYEPLFQINRADKIDTRMVFNPEGTALFVVVCNRHCIYKVPYNALTHTFGEPELFAGGWDESGYVNGSGVTARFDNPRQPAFDQDGNMFVPEYGRHTIRKITPTGEVSLYAGLPGQAGFTDGLPEKARFNKPECVTVYLDNSLYVADRDNHLIRRVTVE | not soluble |
| MIAQQFNRARHILRHNLVRPFYQPKFYLESGKLAGFEALLRWYDEDNQIQLPKLIINAFEDYSLASRLSEKMQLNIFKDMASWINQGLQLVPVSINAAPVEFLKDNYAELLLERLNQFEIPYHLIEIEITEHLLDDQGKNFISRALAKLKQNGIRIALDDFGTGHSSLTRLANLPVDCLKIDCDFVQRMEQEKFISALVQSVILMSNNLGIDVVAEGIESQEQLELLKQQGCEVGQGFLFSQA | not soluble |
| MAHHHHHHMSVFEARQKVYATLHGTFHAAIVQEVAVDAETGQYLYYVHYVEQDSRMDCWLPASELKERRQGRQASKQQTNKSGGGGITTRGQSRLVAGKEDEVSRGPNTPTSSAKRSNLQNCVKVSTTRARKDSSFFSRPKNIHSICMGPYEVATWYFSPYHLARPQIQQGLKQNAELFSGKMELQLRQENKKSAFQTAVVPTSFVLHICPFCLHPFTAHEDVVRHLQIVCPRHPPGNEIYRDPVRQLVVLEMDAVVEPVFCEHLALLSKLFLEHKALDHDMTPFLFYVLCAVQPHGLEVLGYFSKEKQSPEMYNLSCILVLPQFQSRGIGRFLIELSYELSRREGRIGSPEKPLSDLGEKLYLGYWGDVIVSALARAIEENHCATLEYLVQATYLSQADVLRTLQYLRLLNGTQIVVSEESIERCYSRRLHRERSGKNYVFYPHLLSWSPHMYYELKEQDVAPPIYVTQSEELEQNAASKGQRVF | not soluble |
